Results: article PMC11832422 (Nature Structural & Molecular Biology, 2024)
Where “and” joins values, the source holds several entries; their conditions need not be identical. Equal entries are not always repeated.

Target: the molecule itself
Assay: cryo-EM structure

B1: CXCR4EM (human CXCR4 with N119S, hemagglutinin signal peptide, C-terminal monomeric enhanced GFP and FLAG tag) (receptor)
chain: EGISIYTSDNYTEEMGSGDYDSMKEPCFREENANFNKIFLPTIYSIIFLTGIVGNGLVILVMGYQKKLRSMTDKYRLHLSVADLLFVITLPFWAVDAVANWYFGNFLCKAVHVIYTVSLYSSVLILAFISLDRYLAIVHATNSQRPRKLLAEKVVYVGVWIPALLLTIPDFIFANVSEADDRYICDRFYPNDLWVVVFQFQHIMVGLILPGIVILSCYCIIISKLSHSKGHQKRKALKTTVILILAFFACWLPYYIGISIDSFILLEIIKQGCEFENTVHKWISITEALAFFHCCLNPILYAFLGAKFKTSAQHALTSVSRGSSLKILSKGKRGGHSSVSTESESSSFHSS
In the case of B1, the “stoichiometry N” value is reported as 3 and 4.
